Experiment: soluble on expression in E. coli; label from the status in PepcDB or PDB records

Row | Sequence | soluble on expression in E. coli
1 | MSGSVSGCGSGGCSIVWFRRDLRVEDNPALAAAVRAGPVIALFVWAPEEEGHYHPGRVSRWWLKNSLAQLDSSLRSLGTCLITKRSTDSVASLLDVVKSTGASQIFFNHLYDPLSLVRDHRAKDVLTAQGIAVRSFNADLLYEPWEVTDELGRPFSMFAAFWERCLSMPYDPESPLLPPKKIISGDVSKCVADPLVFEDDSEKGSNALLARAWSPGWSNGDKALTTFINGPLLEYSKNRRKADSATTSFLSPHLHFGEVSVRKVFHLVRIKQVAWANEGNEAGEESVNLFLKSIGLREYSRYISFNHPYSHERPLLGHLKFFPWAVDENYFKAWRQGRTGYPLVDAGMRELWATGWLHDRIRVVVSSFFVKVLQLPWRWGMKYFWDTLLDADLESDALGWQYITGTLPDSREFDRIDNPQFEGYKFDPNGEYVRRWLPELSRLPTDWIHHPWNAPESVLQAAGIELGSNYPLPIVGLDEAKARLHEALSQMWQLEAASRAAIENGSEEG | soluble
2 | MIEINDVNKKYQQTTVLNEINERIPSGGITSIIGPNGAGKSTLLSIMSRLLAADSGNVLFNGLDVAKTSGDKLATILSVLRQENHFTSRLTVSDLVGFGRYPYSRGRLNKNDRQHIDAAMEFLNLMPLKDRYLDELSGGQRQRAYVAMVLCQDTSYILLDEPLNNLDMKHCVAMMKQLRRAADELHKTIILVIHDINFASAYSDHIIAMKNGEVIYRGAPAEIMQPSILEEIFDIKISIEKVQGQHIAVYYR | not soluble
3 | GSSHHHHHHSSGLVPRGSQILCVGLVVLDVISLVDKYPKEDSEIRCLSQRWQRGGNASNSCTILSLLGAPCAFMGSMAPGHVADFVLDDLRRYSVDLRYTVFQTTGSVPIATVIINEASGSRTILYYDRSLPDVSATDFEKVDLTQFKWIHIEGRNASEQVKMLQRIDAHNTRQPPEQKIRVSVEVEKPREELFQLFGYGDVVFVSKDVAKHLGFQSAEEALRGLYGRVRKGAVLVCAWAEEGADALGPDGKLLHSDAFPPPRVVDTLGAGDTFNASVIFSLSQGRSVQEALRFGCQVAGKKCGLQGFDGIV | soluble
4 | MSVGQTLAEKILSHKVGRPVRAGELVVVEVDQVMVVDSIAGSFFKRLEYLEATPRYPERVSIVIDHVAPAANLEVAKAQKEIREWGKRHGIRVFDVGRGVCHQVLIEEGLAQPGWVVVGSDSHSTTYGAVGAFGTGMGATDIALAAASGRTWLRVPESVKVVFRGRLPKGVTAKDAALEMVRLLTAEGATYMAVEIHLLDGAEALTRGERMTLANLTVEAGAKAGLVVPSGEILEMYRVPDWLYPDPDARYAKEVEIDLSALTPRVSVPFYVDNVHEVAQVKGKRVDQVFIGTCTNGRIEDLRAAAEVLKGRKVAPWVRLLVVPASSQVLEEAARDGTLLTLLEAGATIGTPGCGPCMGRHMGVLAPGEVCVSTSNRNFRGRMGAPDAEIYLASPRVAAASAVAGYLTTPEELEEEEVHA | soluble
5 | QQKILENIRGIGTNTMTIFNGNGFGDRRSRHIQNLKISDANTLSKQSYIQSVTPNTSSSGILVVGNKSFTSANLYGIGEQYFDVEGLKLKQGRLLTEDDVDQSNQVVVLDESAKKAIFANENPLGKTVIFNKRPFRVIGVVSDQQLGGFPGNSLNLYSPYSTVLNKITGGSRIGSITVKISDDVNSTVAEKSLTELLKSLHGKKDFFIMNSDTIKQTIENTTGTMK | soluble
6 | MGSDKIHHHHHHMTAANTQHVEHINECTLESVIDLIRDADKPMVFKGLCHHWPLVQAGLESAQSAMTYLRQFYQGMPVTAYYVPPEQHGRVFYNEQLDGFNYQAGRLDFNQLLDRLSQEMIKDMPAGMYMGSTDIHQCLPGLGAQNSLDLAPMQPLTSIWLGNQTKVAAHYDFPLNLACNVVGKRTFTLFPPEQISNLYVGPMELAPGGQDISLVDMANPDFERFPRFQHALDASLTAELSPGDVLFIPSMWWHHVRGVDDFNVLITHWWRDTPGFLGRPNNALLHSILSLRSLPKAQRQAWKSIFEHYIFDHDDVDDSHIPDNVKGMQTKPLDELTARKIRADLINKLKR | not soluble
7 | MHHHHHHSSGVDLGTENLYFQSNAMELKDYYAILGVQPTDDLKTIKTAYRRLARKYHPDVSKENDAEAKFKDLAEAWEVLKDEQRRAEYDQLWQHRNDPGFGRQRQTHEQSYSQQDFDDIFSSMFGQQAHQRRRQHAARGHDLEIEVAVFLEETLAEQTRTISYNLPVYNVFGMIESETPKTLNVKIPAGVVDGQRIRLKGQGTPGENGGPNGDLWLVIHIAPHPLFDIVGHNLEIVLPLAPWEAALGAKVTVPTLKESILLTVPPGSQAGQRLRIKGKGLVSKTHTGDLFAVIKIVMPTKPDEKARELWQQLAAAEASFDPRKTWGKA | soluble
8 | MGSDKIHHHHHHMLRGLWGAAAGMITQQQRQEMLTNNLANVNTPGYKADQAAIRAFPNMLIAAMNTGNVPKGVAPVIGELTTGVYLQERMPNFRQGDLVETQNNTDVALLQGVMPTNEENGQPWALFYTVQNENGEVRYTRNGNFTVDGDGFLTTGDGFYVLGTDGNPLQVNNEWFNVDGDGMITDEAGAAIGQINVVVAEDPMQLVKEGNGLLRFEGDGELPTGVGNAAVNYQLQQGFIERSNVDAAQTMTEMMQAYRTFEANQQVLRAYDESLGKAVNEVGRIG | not soluble
9 | MAELKLEHIKKTYDNNNTVVKDFNLHITDKEFIVFVGPSGCGKSTTLRMVAGLESITSGDFYIDGERMNDVEPKNRDIAMVFQNYALYPHMTVFENMAFGLKLRKVNKKEIEQKVNEAAEILGLTEYLGRKPKALSGGQRQRVALGRAIVRDAKVFLMDEPLSNLDAKLRVQMRTEILKLHKRLNTTTIYVTHDQTEALTMASRIVVLKDGDIMQVGTPREIYDAPNCIFVAQFIGSPAMNMLNATVEMDGLKVGTHHFKLHNKKFEKLKAAGYLDKEIILGIRAEDIHEEPIFIQTSPETQFESEVVVSELLGSEIMVHSTFQGMELISKLDSRTQVMANDKITLAFDMNKCHFFDEKTGNRIV | not soluble
10 | MSLTELPRIISVDDHVIEPAHLFETWLPKKYRDRGPKPLTAGIGELAYVGGKYQITMDPKGPPTDWWIYEDLKFPYKRNIAAVGFDRDEMTLEGITRAEMRRGCWDPVERLKDMDANHVEGSLCFPTFPRFCGQTFAEAHDKEVALACVRAYNDWMVEEWCGDSGGRLIPLCLIPLWDIGLAVAEIRRNAARGVKAVTFSEIPTHLGLPSIHSGYWDPFFAVCQETGTVVNMHIGSSSQMPAASPDAPPAVQAALSFNNAMASMMDFLFSGVLVKFPRLKLAYSEGQMGWIPYALERADDVWEEHRAWGGVRDLIPEPPSTYYYRQIFCCFFRDKHGVASIDVVGRDNATFETDYPHVDSTFPHTKEVALDHVEGLDDETVYKLMRGNAIRMLDLDLDRDLDHLGNRDHLGARDTLSSRDKADREGHHHHHH | soluble
11 | MKQKRSSSGLKKRIFSTFGKASEERPSLLLLDLPIDILLAITKQLDTETRMIVRKVSPAFRDIIDYQGSGVKTMKIGKDCITIDWKRIEYREGVHCSCLIIYQGHIKTKIYESPQSLMFQDLSILLKSPRIRLSWLDLAPISCTSYNWTGVDVNSIVKILEPIKSRHIERVYFQDINYAEVVLILQKFKAGFLREISLDSEQINGWSIPQIGGMVHLEQWKRAQHLKIHSFVNLDPLINHISHFHTIQLLCQSMSKLQMLKWKEIINTSKTLVKCVLRGNANFAGLARVFDPAFEQAYGNISYVSADEFNCTIRFMPENFCIMKLK | not soluble
12 | MNKTPRVGFVSLGCPKAASDSEQILTRLRAEGYEIAPSYDGADLVVVNTCGFIDSAVEESLDAIGEALNENGKVIVTGCLGAKGDVVRDVHPSVLAVTGPHATEEVMSAVHTHLPKPHDPFVDLVPDIGVRLTPKHYAYLKISEGCNHRCTFCIIPSMRGDLESRPIHDVLREAESLAKAGVKEILVISQDTSAYGVDTKYKLGFHNGRPVKTRMTELCEELGRHGIWVRLHYVYPYPHVDEVIPLMRDGKILPYLDIPFQHASQKVLKLMKRPANSDNVLARIKKWREICPELVIRSTFIVGFPGETEEDFEELLAFIREAELDRVGCFTYSPVEGATANELPNPVPEDVKEARKERFMAVQAEISARRLERRVGQTLQVLVDEIDDEGTAVCRSYADAPEIDGLVFVEDAAGMQPGEFYQVEIVDCSEHDLWGERRLEHHHHHH | soluble
13 | MGSDKIHHHHHHMGLLLKTAASPFACSSGMQNFIANPELESYLRLNRAACGEWTLALQDLLGCSGLACDLSRPKEEVGSLSALGVGGGLVAALSVRQGLELQHCRLESVLLVFPVQGHCELLSDGAAANTLLPFQLILPGQTFSLRVTAESRLLLLMPAEQPQAVQLAAATSEAITLSIQRFLYQAGFLQDHHQGCQAAETVLREVREILAGSSGVTKVTEAVPEPDRRLLKAISKIRTEPDWPFDLQELSSHAGVSERNLYYLMKRQTGMTPYRYYQRCRLIRVRRRLVDCQCAVPHISRYAGDEGFSHFGRFAALYREHFGELPSETVQWRRRLQAQELLAPALS | not soluble
14 | MILFVGFLLMEIVMPQISRTALVPYSAEQMYQLVNDVQSYPQFLPGCTGSRILESTPGQMTAAVDVSKAGISKTFTTRNQLTSNQSILMNLVDGPFKKLIGGWKFTPLSQEACRIEFHLDFEFTNKLIELAFGRVFKELAANMVQAFTVRAKEVYSARLEHHHHHH | not soluble
15 | GPGSMKGKAGRSIAAISDVRAAVLRFCDEQLSRRLDTQPVAEVHQKVSACVQTVDPAMTPYIFGSTAVLGVHEQGSDVDFVCLSPTDVQDGKGADAVSEVAKGLQSDFLFRLGEVVKREHYLWGIELVRRTRVPVLRVKGGLGVDGVSFDVTANRRNGVRNSALLRAYFTQCPEARWLSMLVKQWSKKTGLNASVEGGCITSYGWNIMIVYYLLRRRLVTLVPVESCDVADIAPMPPHMPLESLQQGGQGLADMLMDFVSYYLDEFAPETEVMSLTRAAGETTTEMLSWTKQAEDMARIRGEKIHYRWCIEDPYEYDLNVGRNVTPFKLMLLRKHLERARETALLLLATPPPSATARSVK | not soluble
16 | MKIVAITSCPNGIAHTYMAQEKLEQVAKEMGVDIKVETQGGVGAENVLTTQDIEEADGVIIAADKQVDLSRFVGKRLINENVREGIHNPRGLIQRIINQDAPIYQSETN | not soluble
17 | MSLPPSQSDRDPFSVTMCHSTLASLPLVYACSGCSSVAQLANTFAVRLDRSGAAEMSCISGVGGGVPALTRVARSGRPILALDGCALSCVKACLASVDVVPDRHLVLNRLGATKRQHGVCTEAEEAETWDAVQQALAEVRGAMEGHHHHHH | soluble
18 | MGSDKIHHHHHHMKQLILFLLCLSTWTAQAKIYNVKDYGAKADGTTIDSPAINRAIEEAASQGGGTVYFPAGEYACYSIRLASHIHLYIEQGARIVGAFPSATEGYDPAEPNEHTQFQDFGHSHWKNSLIWGIGLEDITISGPGLIYGKGLTREESRLPGVGNKAISLKLCKNVTLKDFSLLHCGHFGLLATGVDNLSILNVKVDTNRDGFDIDCCKNVRISHCTVNAPWDDAIVLKASYGLGYFKDTENVTISDCFVSGYDRGSVLDCTWQRDEPQAPDHGFVTGRIKLGTESSGGFKNIAITNCIFERCRGLALETVDGGKLEDIVISNITMRDIVNAPIFLRLGARMRSPQGTPVGTMKRILISHVNVFNADSRYSSIISGIPGALIEDVTLSDIHIYHQGGYTEADGLLTPPEQEKVYPEPWMFGTIPAKGFYIRHARNITLDNVNFHYEKADGRPLFVTDDASDIRYRNITVDGKEFNTAN | not soluble
19 | MTDYLNVGKIVNTQGIKGEVRVISKTDFPEERYQKGAMLLLFQEKKAPIELVVKSHRKHKNFDILSFEGHPNINDVEKYRDGILKVAKDNLAELAEDEFYYHQIIGATVYDETGSELGKIKEILSPGANDVWVVQRPKKKDLLLPYIEGVVTKVDVENQRIDVDIPEGLIDDENLEHHHHHH | soluble
